Target: T1, Aβ 1-42 peptide (human, UniProt P05067 672-713)
T1 construct: domain: Aβ 1-42; also called Aβ42
Assay: competitive ELISA on Aβ1-42; labelled antibody biotinylated murine 12B4

T1 sequence (P05067 672-713 limits assumed): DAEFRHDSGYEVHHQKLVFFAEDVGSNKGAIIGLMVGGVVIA

B1: chimeric 12B4 (antibody, V domains shown)
VH: QVTLKESGPGILQPSQTLSLTCSFSGFSLSTNGMGVSWIRQPSGKGLEWLAHIYWDEDKRYNPSLKSRLTISKDTSNNQVFLKITNVDTADTATYYCARRRIIYDVEDYFDYWGQGTTLTVSS
VL: DVLMTQTPLSLPVSLGDQASISCRSSQNIVHSNGNTYLEWYLQKPGQSPKLLIYKVSNRFSGVPDRFSGSGSGTDFTLKISRVEAEDLGVYYCFQGSHVPLTFGAGTKLELK
notes: Murine 12B4 variable regions joined to human gamma 1 and C kappa constant regions (vectors pCMV-hγ1 and pCMV-hκ1), expressed in COS cells; also called chimeric 12B4 antibody
- binding result: binds

B2: murine 12B4 (antibody, V domains shown)
VH: B1 VH
VL: B1 VL
notes: Mouse monoclonal antibody of the IgG2a isotype; also called mAb 12B4; mouse 12B4
- binding result: binds
